# Source: US20230212268A1 (UNM RAINFOREST INNOVATIONS, published 2023)
# T1: recombinant RESTV glycoprotein (RESTV (Reston ebolavirus), UniProt Q66799 34-651)
# T1 sequence: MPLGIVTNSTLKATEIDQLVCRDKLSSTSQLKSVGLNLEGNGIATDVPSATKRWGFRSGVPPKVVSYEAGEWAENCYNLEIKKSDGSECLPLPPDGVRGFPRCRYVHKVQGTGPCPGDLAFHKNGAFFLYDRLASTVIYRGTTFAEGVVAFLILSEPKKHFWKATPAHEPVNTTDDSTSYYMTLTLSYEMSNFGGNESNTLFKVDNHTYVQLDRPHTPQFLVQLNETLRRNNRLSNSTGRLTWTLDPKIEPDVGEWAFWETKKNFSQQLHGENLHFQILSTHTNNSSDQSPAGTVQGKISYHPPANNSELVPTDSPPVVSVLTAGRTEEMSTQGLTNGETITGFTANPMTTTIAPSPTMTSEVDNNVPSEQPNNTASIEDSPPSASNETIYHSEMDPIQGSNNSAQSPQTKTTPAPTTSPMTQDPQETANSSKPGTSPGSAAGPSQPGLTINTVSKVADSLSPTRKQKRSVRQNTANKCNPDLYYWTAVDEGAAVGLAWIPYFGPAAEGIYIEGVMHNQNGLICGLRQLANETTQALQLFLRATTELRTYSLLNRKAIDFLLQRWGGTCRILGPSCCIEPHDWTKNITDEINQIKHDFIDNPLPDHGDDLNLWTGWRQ
# T2: recombinant EBOV glycoprotein (EBOV (Zaire ebolavirus), UniProt Q05320 33-650)
# T2 sequence: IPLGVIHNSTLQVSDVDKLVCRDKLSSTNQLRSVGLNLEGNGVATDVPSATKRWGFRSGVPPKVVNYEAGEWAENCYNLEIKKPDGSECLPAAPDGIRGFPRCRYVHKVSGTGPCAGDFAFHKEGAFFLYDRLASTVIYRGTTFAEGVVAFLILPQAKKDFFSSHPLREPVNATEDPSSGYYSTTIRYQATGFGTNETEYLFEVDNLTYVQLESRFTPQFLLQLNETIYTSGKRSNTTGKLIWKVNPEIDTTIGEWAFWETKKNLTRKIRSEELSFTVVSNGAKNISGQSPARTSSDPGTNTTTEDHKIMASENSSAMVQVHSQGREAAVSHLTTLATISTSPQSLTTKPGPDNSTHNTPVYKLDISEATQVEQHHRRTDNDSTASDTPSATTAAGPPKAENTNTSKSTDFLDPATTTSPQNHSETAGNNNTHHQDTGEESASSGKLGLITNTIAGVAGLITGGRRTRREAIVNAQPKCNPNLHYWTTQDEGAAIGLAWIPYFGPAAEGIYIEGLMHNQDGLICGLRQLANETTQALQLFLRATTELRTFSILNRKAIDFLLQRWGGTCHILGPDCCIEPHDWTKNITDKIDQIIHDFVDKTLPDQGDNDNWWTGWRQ
# T3: recombinant TAFV glycoprotein (TAFV (Tai Forest virus), UniProt Q66810 33-650)
# T3 sequence: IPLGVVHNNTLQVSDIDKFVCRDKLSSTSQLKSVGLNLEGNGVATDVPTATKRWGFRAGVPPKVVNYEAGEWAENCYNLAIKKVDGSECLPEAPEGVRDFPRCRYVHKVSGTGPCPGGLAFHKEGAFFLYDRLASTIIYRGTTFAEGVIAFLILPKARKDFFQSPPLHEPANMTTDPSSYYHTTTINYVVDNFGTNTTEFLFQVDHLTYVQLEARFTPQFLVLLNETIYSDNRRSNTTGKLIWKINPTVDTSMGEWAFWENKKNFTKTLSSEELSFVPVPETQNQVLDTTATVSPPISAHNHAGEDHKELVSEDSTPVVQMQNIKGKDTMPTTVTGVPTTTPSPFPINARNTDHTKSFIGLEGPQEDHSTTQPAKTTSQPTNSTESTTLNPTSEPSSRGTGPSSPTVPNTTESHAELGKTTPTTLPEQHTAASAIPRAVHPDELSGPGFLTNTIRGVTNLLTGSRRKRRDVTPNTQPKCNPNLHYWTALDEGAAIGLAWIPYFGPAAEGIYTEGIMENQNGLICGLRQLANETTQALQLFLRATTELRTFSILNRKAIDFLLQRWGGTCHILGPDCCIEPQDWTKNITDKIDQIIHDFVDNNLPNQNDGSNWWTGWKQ
# T4: recombinant MARV glycoprotein (MARV (marburgvirus, Ravn), UniProt Q1PDC7 19-648)
# T4 sequence: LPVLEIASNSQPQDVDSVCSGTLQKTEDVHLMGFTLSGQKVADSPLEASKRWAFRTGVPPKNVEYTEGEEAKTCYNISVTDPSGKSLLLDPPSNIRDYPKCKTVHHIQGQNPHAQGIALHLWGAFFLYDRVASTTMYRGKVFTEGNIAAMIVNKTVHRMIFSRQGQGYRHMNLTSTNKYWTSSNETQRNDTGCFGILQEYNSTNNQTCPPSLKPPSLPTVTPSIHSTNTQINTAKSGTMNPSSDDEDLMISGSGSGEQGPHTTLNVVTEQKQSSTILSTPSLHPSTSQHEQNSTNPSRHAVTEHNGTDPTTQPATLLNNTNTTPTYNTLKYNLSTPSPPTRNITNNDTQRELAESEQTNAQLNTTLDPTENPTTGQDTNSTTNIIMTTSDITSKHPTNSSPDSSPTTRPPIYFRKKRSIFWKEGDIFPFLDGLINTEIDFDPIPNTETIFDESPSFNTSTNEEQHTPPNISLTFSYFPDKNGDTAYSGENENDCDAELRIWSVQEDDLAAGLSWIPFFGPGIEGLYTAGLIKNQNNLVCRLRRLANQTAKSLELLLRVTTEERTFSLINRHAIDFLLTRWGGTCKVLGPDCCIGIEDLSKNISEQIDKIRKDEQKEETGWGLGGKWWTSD
# B1: EbovGPscFv4-2 (scFv)
# scFv: MAWSHPQFEKTGSGGAELVKSGASVKLSCTASGFNIKDDYMHWVKQRPEQGLEWIGWIDPENGDTEYASKFQGKATITADTSSNTAYLQLSSLTSEDTAVYYCTTYYYGSAWFAYWGQGTLVTVSAGGGGSGGGGSGGGGSGGGGSASLSVSVGETVTITCRASGNIHNYLAWYQQKQGKSPQLLVYNAKTLADGVPSRFSGSGSGTQYSLKINNLQPEDFGSYYCQHFWSTPYTFGGGTKLEIKRADAAPTVSIFPPSSEQLTSGGASVVCFLNNFTHCQELQQDECS
# How the values were obtained:
# [1] = target: T1, recombinant RESTV glycoprotein; assay: maximal binding from ELISA dose-response fit
# [2] = target: T2, recombinant EBOV glycoprotein; assay: ELISA dose-response fit, reference scFv22-1
# [3] = target: T1, recombinant RESTV glycoprotein; assay: ELISA dose-response fit, reference scFv22-1
# [4] = target: T3, recombinant TAFV glycoprotein; assay: ELISA dose-response fit, reference scFv22-1
# [5] = target: T4, recombinant MARV glycoprotein; assay: ELISA dose-response fit, reference scFv22-1
binder,measurement,setting,value
B1,Bmax signal,[1],210000 relative absorbance units
same,fold affinity against scFv22-1,[2],~2 fold
same,fold affinity against scFv22-1,[3],~2 fold
same,fold affinity against scFv22-1,[4],~2 fold
same,fold affinity against scFv22-1,[5],~2 fold
